Data on 19 molecules can be found in US9932404B2.

For test [1], the target named is human TLR3 extracellular domain (amino acids 1-703) with C-terminal poly-histidine tag (human). As to the kind of experiment: ELISA, coated huTLR3 ECD.
The target is the same in test [2]. As to the kind of experiment: Biacore (data not shown). (In general: SPR reads the build-up and loss of mass on a sensor chip optically.)
Test [3] addresses full-length murine TLR3 (mouse).

Substitutions are numbered along the chain they refer to.

B1: mAb 1 (antibody, V domains shown)
V domain 1: GVELVQSGAEVKKPGESLKISCKGSGYSFTDNWISWVRQAPGKGLEWMGVIDPSDSYTNYAPSFQGQVTISADKSISTAYLQWSSLKASDTAMYYCAREWGIGGMVDIWG
V domain 2: DIVLTQSPATLSLSPGERATLSCRASQYIDISYLAWYQQKPGQAPRLLIYDASSRATGVPARFSGSGSGTDFTLTISSLEPEDFAVYYCQQYYSLSITFGQGTKVEIK
In test [1], B1 had an EC50 of 0.0172 µg/mL. This molecule also registered a Kd in test [2] of under 10 nM.

B2: mAb 8 (antibody, V domains shown)
VH: QVELQQSGPGLVKPSQTLSLTCAISGDSVSSNSAAWGWIRQSPGRGLEWLGIIQTRSKWYNDYAVSVKSRITINPDTSKNQFSLQLNSVTPEDTAVYYCARYSYPFYSIDYWGQGTLVTVSS
VL: DIELTQPPSVSVAPGQTARISCSGDNIGSYYVHWYQQKPGQAPVLVIYEDSERPSGIPERFSGSNSGNTATLTISGTQAEDEADYYCQSYDSQFSFGVFGGGTKLTVL
For B2, the EC50 in test [1] came to 0.0186 µg/mL. Further, in test [2], the Kd is under 10 nM.

B3: mAb 10 (antibody, V domains shown)
VH: B2 VH with T55K, D62N
VL: DIELTQPPSVSVAPGQTARISCSGDNIGSYYVHWYQQKPGQAPVLVIYEDSERPSGIPERFSGSNSGNTATLTISGTQAEDEADYYCQSYDTPVYSVFGGGTKLTVL
For the molecule B3, in test [1], the EC50 stood at 0.0158 µg/mL. Further, the Kd in test [2] is under 10 nM.

B4: mAb 18 (antibody, V domains shown)
VH: B2 VH with T55K, D62N
VL: B2 VL
In test [1], B4 showed an EC50 of 0.00968 µg/mL. The Kd in test [2] was under 10 nM.

B5: mAb 9 (antibody, V domains shown)
VH: B2 VH with T55I, V65L
VL: B2 VL
B5 gave an EC50 in test [1] of 0.0226 µg/mL. Moreover, in test [2], the Kd is under 10 nM.

B6: mAb 12 (antibody, V domains shown)
V domain 1: B2 VH with T55K, D62N
V domain 2: B2 VH with Q1D, V2I, T55K, D62N
B6: the EC50 in test [1] was 0.0256 µg/mL. This molecule yielded a Kd in test [2] of under 10 nM.

B7: mAb 11 (antibody, V domains shown)
VH: B2 VH with T55K, D62N
VL: B3 VL with Q88S, T92E, V94N, Y95F, S96N
As to B7, in test [1], the EC50 came out at 0.0263 µg/mL. The molecule further yielded a Kd in test [2] of under 10 nM.

B8: mAb 4 (antibody, V domains shown)
VH: QVELQQSGPGLVKPSQTLSLTCAISGDSVSTRSAAWGWIRQSPGRGLEWLGKISYRSRWYNDYAVSVKSRITINPDTSKNQFSLQLNSVTPEDTAVYYCARHTYPYLSFDVWGQGTLVTVSS
VL: DIELTQPPSVSVAPGQTARISCSGDALGGYFVSWYQQKPGQAPVLVIYDDDNRPSGIPERFSGSNSGNTATLTISGTQAEDEADYYCASYDGDEFTVFGGGTKLTVL
For B8, the EC50 in test [1] worked out at 0.0128 µg/mL. The same molecule came in with a dissociation constant (Kd) in test [2] of under 10 nM.

B9: mAb 7 (antibody, V domains shown)
VH: B8 VH with K52R, S54Y, Y55M, R58K
VL: B8 VL with A88S, G92S, E94S, F95L
On to B9, for which the EC50 in test [1] stood at 0.0161 µg/mL. The same molecule yielded a Kd in test [2] of under 10 nM.

B10: mAb 3 (antibody, V domains shown)
VH: B8 VH with K52R, S54H, Y55R, R58K
VL: B8 VL
B10 returned an EC50 in test [1] of 0.0234 µg/mL. Besides, in test [2], the Kd is under 10 nM.

B11: mAb 17 (antibody, V domains shown)
VH: B8 VH with K52R, S54Y, Y55M, R58K
VL: B8 VL
In turn, B11 gave an EC50 in test [1] of 0.0138 µg/mL. The same molecule gave a Kd in test [2] of under 10 nM.

B12: mAb 5 (antibody, V domains shown)
VH: B8 VH with K52R, S54Y, Y55M, R58K
VL: B8 VL with A88Q, G92E, E94S, F95A
Molecule B12 had an EC50 in test [1] of 0.0199 µg/mL. The same molecule yielded a Kd in test [2] of under 10 nM.

B13: mAb 6 (antibody, V domains shown)
VH: B8 VH with K52R, S54Y, Y55M, R58K
VL: B8 VL with A88G, G92S, D93N, E94S, F95L
On to B13, for which the concentration giving a half-maximal response (EC50) in test [1] stood at 0.019 µg/mL. In addition, in test [2], the Kd is under 10 nM.

B14: mAb 16 (antibody, V domains shown)
VH: QVELVQSGAEVKKPGESLKISCKGSGYSFNNYWIGWVRQMPGKGLEWMGIIDPGDSYTNYAPSFQGQVTISADKSISTAYLQWSSLKASDTAMYYCARNIYEFDYWGQGTLVTVSS
VL: DIQMTQSPSSLSASVGDRVTITCRASQGISSWLNWYQQKPGKAPKLLIYGASNLQSGVPSRFSGSGSGTDFTLTISSLQPEDFAVYYCQQYDDFSITFGQGTKVEIK
On to B14, for which the EC50 in test [1] turned out to be 0.0437 µg/mL. For the same molecule, the Kd in test [2] was under 10 nM.

B15: mAb 2 (antibody, V domains shown)
VH: B14 VH with G54Q, Y57W
VL: B14 VL
Turning to B15, in test [1], the EC50 stood at 0.0531 µg/mL. The molecule further gave a Kd in test [2] of under 10 nM.

B16: mAb 13 (antibody, V domains shown)
VH: QVELVQSGAEVKKPGESLKISCKGSGYSFTNYWVGWVRQMPGKGLEWMGFIDPSDSYTNYAPSFQGQVTISADKSISTAYLQWSSLKASDTAMYYCARELYQGYMDTFDSWGQGTLVTVSS
VL: DIQMTQSPSSLSASVGDRVTITCRASQSIGLYLAWYQQKPGKAPKLLIYAASSLQSGVPSRFSGSGSGTDFTLTISSLQPEDFATYYCQQGESILSTFGQGTKVEIK
Molecule B16 yielded an EC50 in test [1] of 0.0235 µg/mL. For the same molecule, the Kd in test [2] is under 10 nM.

B17: mAb 19 (antibody, V domains shown)
VH: B16 VH
VL: B16 VL with G91Y, E92G, I94V, L95S, S96I
With B17, the half-maximal effective concentration (EC50) in test [1] was 0.0665 µg/mL. The Kd in test [2] was under 10 nM.

B18: mAb 14 (antibody, V domains shown)
VH: B16 VH
VL: DIQMTQSPSSLSASVGDRVTITCRASQSIGLYLAWYQQKPGKAPKLLIYAASSLQSGVPSRFSGSGSGTDFTLTISSLQPEDFATYYCQQAETVSPTFGQGTKVEIKR
In the case of B18, the EC50 in test [1] was 0.0336 µg/mL. This molecule also came in with a Kd in test [2] of under 10 nM.

B19: mAb c1811 (antibody, V domains shown)
VH: EVQLVASGGGLVKPGASLKLSCVASGFTFSDYWMAWVRQTPGKPMEYIGDIKSDGSKVNYAPSLKNRFTISRDNARTTLYLQMSNVRSEDTATYYCNRDIGPDWYFDFWGPGTMVTVSS
VL: DIQMTQSPTSLSASLGETVTIECRASEDIYNGLAWYQQKPGKSPQLLIYDSNSLHTGVPSRFSGRGSGTQYSLRINSLQSEDVASYFCQQYYDYPLTFGSGTKLEIKR
For the molecule B19, the IC50, poly(I:C)-induced ISRE luciferase reporter in test [3] stood at 0.7 µg/mL.

What is called EC50 is the concentration needed to bring the measured effect to its halfway point. By Kd is commonly meant the concentration at which binding is half-saturated. Low readings indicate higher affinity, high ones lower affinity.
